Results taken from patent US20160324958A1 (ALPHA O PEPTIDES, published 2016).

B1: LONG-D2-D1-ori self-assembling protein nanoparticle (other)
chain: MGHHHHHHASWRWDGGLVPRGSWQTWNARWDQWSNDWNAWRSDWQAWRDDWARWRALWMGGRLLLRLEELERRLEELERRLEELERFVAAWTLRVRALERRLEELERRIEEIARGSGSSARLSDLEANNAVKGESKITVNGAEYTANATGDKITLAGKTMFIDKTASGVSTLINEDAAAAKKSTANPLASIDSALSKVDAVRSSLGAIQNRFDSAIGSRNANDGISIAQTTEGALNEINNNLQRVRELSVQATNGTNSDSDLKSIQDEIQQRLEEIDRVSNQTQFNGVKVLSQDNQMKIQVGANDGETITIDLQKIDVKSLGLDGFNVNGPKEATVGDLKSSFKNVTGYDTYAAGADKYRVDINSGAV
B2: T81c-WRW-8RRVRA-D0-D1 : T81c-WRW-8RRVRA-T1BT* co-assembled nanoparticle (12:48) (other)
chain 1: MGHHHHHHASWRWDGGLVPRGSWQTWNARWDQWSNDWNAWRSDWQAWRDDWARWRALWMGGRLLLRLEELERRLEELERRLEELERFVAAWTLRVRALERRLEELERRIEEIARGMAQVINTNSLSLLTQNNLNKSQSALGTAIERLSSGLRINSAKDDAAGQAIANRFTANIKGLTQASRNANDGISIAQTTEGALNEINNNLQRVRELAVQSANSTNSQSDLDSIQAEITQRLNEIDRVSGQTQFNGVKVLAQDNTLTIQVGANDGETIDIDLKQINSQTLGLDSLNVHGAPVDPASPWTENPLQKIDAALAQVDALRSDLGAVQNRFNSAITNLGNTVNNLSEARSRIEDSDYATEVSNMSRAQILQQAGTSVLAQANQVPQNVLSLLR
chain 2: MGHHHHHHASEYLNKIQNSLSTEWSPSSVTGSWQTWNARWDQWSNDWNAWRSDWQAWRDDWARWRALWMGGRLLLRLEELERRLEELERRLEELERFVAAWTLRVRALERRLEELERRIEEIARGSGDPNANPNVDPNANPNVNANPNANPNANP
B3: PD52-2i88-PANDORA-D2-D1-ori : PD52-2i88-PANDORA-Noro co-assembled nanoparticle (5:55) (other)
chain 1: MGHHHHHHASGSWEKWNAKWDEWKNDWNDWRRDWQAWVDDWAYWTLTWKYGELYSKLAELERRNEELERRLEELARFVAALSMRLAELERRNEELARGSGSSARLSDLEANNAVRGESKITVNGAEYTANATGDRITLAGRTMFIDRTASGVSTLINEDAAAARRSTANPLASIDSALSRVDAVRSSLGAIQNRFDSAIGSKNANDGISIAQTTEGALNEINNNLQRVRELSVQATNGTNSDSDLRSIQDEIQQRLEEIDRVSNQTQFNGVKVLSQDNQMKIQVGAKDGETITIDLQKIDVKSLGLDGFNVNGPREATVGDLRSSFRNVTGYDTYAAGADRYRVDINSGAV
chain 2: MGHHHHHHASGSWEKWNAKWDEWKNDWNDWRRDWQAWVDDWAYWTLTWKYGELYSKLAELERRNEELERRLEELARFVAALSMRLAELERRNEELARGSGSTVEQKTRPFTLPNLPLSSLSNSRAPLPISSMGISPDNVQSVQFQNGRCTLDGRLVGTTPVSLSHVAKIRGTSNGTVINLTELDGTPFHPFEGPAPIGFPDLGGCDWHINMTQFGHSSQTQYDVDTTPDTFVPHLGSIQANGIGSGNYVGVLSWISPPSHPSGSQVDLWKIPNYGSSITEATHLAPSVYPPGFGEVLVFFMSKMPGPGAYNLPCLLPQEYISHLASEQAPTVGEAALLHYVDPDTGRNLGEFKAYPDGFLTCVPNGASSGPQQLPINGVFVFVSWVSRFYQLKPVGTAS

Columns and labels:
[1] = target: Toll-like receptor 5 (TLR5) on TLR5/SEAPorter HEK 293 cells (IMGENEX, Cat. No. IML-105) (UniProt O60602); assay: cell-based or functional assay
Toll-like receptor 5 (TLR5) on TLR5/SEAPorter HEK 293 cells (IMGENEX, Cat. No. IML-105) (UniProt O60602), sequence (O60602 21-858 limits assumed): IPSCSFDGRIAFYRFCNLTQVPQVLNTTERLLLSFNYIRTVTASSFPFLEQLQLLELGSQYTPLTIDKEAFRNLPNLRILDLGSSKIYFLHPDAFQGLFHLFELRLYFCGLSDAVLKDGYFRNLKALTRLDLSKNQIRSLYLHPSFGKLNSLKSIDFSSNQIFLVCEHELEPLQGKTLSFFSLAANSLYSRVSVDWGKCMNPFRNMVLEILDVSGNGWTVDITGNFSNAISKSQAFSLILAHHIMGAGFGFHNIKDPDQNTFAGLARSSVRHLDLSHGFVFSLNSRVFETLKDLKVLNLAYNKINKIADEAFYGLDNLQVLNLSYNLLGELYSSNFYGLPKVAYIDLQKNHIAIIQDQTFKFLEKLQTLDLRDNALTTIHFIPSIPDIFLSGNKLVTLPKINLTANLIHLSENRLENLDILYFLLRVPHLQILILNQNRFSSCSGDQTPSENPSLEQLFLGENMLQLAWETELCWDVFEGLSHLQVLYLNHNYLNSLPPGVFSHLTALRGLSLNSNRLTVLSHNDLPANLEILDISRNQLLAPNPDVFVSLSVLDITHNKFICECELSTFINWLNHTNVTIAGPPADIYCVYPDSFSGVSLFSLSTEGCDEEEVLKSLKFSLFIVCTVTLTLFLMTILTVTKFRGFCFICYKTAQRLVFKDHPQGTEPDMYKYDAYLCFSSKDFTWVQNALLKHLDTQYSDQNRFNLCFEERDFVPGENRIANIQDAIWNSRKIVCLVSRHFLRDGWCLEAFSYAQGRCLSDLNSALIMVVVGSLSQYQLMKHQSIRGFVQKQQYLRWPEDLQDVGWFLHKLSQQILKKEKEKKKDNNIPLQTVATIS

[2] = target: Toll-like receptor 5 (TLR5) on TLR5/SEAPorter HEK 293 cells (IMGENEX, Cat. No. IML-105) (UniProt O60602 21-858); assay: cell-based or functional assay
Toll-like receptor 5 (TLR5) on TLR5/SEAPorter HEK 293 cells (IMGENEX, Cat. No. IML-105) (UniProt O60602 21-858), sequence (O60602 21-858 limits assumed): as above

Molecule | EC50 of TLR5 agonist activity (SEAP reporter, TLR5/SEAPorter HEK 293 cells) [1] | EC50 of TLR5 agonist activity (SEAP reporter, TLR5/SEAPorter HEK 293 cells) [2] | TLR5 activation relative to native flagellin [2]
flagellin from Salmonella typhimurium (IMGENEX flagellin, Cat. No. IMG-2205) (from UniProt P06179 2-495) (ligand) | 0.29 ng/mL | – | –
B1 | – | 12.6 ng/mL | –
B2 | – | 0.0901 ng/mL | ~3 fold
B3 | – | 17.7 ng/mL | –
